Data from the DeepSol protein solubility set.

Experiment: soluble on expression in E. coli; label from the status in PepcDB or PDB records

Question: With “MSTNPGPAEGANQVMAQEHSAGAVQFTAHNVRLDDGTLTIPESSRTLDESSWFISARGILETVFPGDKSHLRLADVGCLEGGYAVGFARMGFQVLGIEVRELNMAACNYIKSKTNLPNLRFVHDNALNIANHGLFDTVFCCGLFYHLENPKQYLETLSSVTNKLLILQTHFSIINRSDKWLRLPTTARQLTDRLLRRPAPVKFMLSAPTEHEGLPGRWFTEFSDDRSFGQRDTAKWASWDNRRSFWIQREHLLQAIKDVGVDLVMEEYDNLEPSIAESLLGGSYAANLRGTFIGIKTR” as the sequence, how does the “soluble on expression in E. coli” value read?
Answer: Its value is “soluble”.

Question: Which “soluble on expression in E. coli” value does the source give for “MSTQKRAIAKTDMLKFTETSQPIGQKKYVELSKDIFIFSYLCGGINFTDIANLTQENIVNGRLHYIRQKTGKLIKIGIPQEAMQIIKKYTDESNGYLFPILNVKVHKTALQKQNRIHKIRGKVNDILKTLGKRLGIEANITTYVARHSFASVLKKSGVNIALISEALGHSDLATTQIYLDSFDNEQVDEAMKNLLEHHHHHH” here?
Answer: Its value is “not soluble”.

Question: Which “soluble on expression in E. coli” value does the source give for “MSTRKAVIGYYFIPTNQINNYTETDTSVVPFPVSNITPAKAKQLTHINFSFLDINSNLECAWDPATNDAKARDVVNRLTALKAHNPSLRIMFSIGGWYYSNDLGVSHANYVNAVKTPASRAKFAQSCVRIMKDYGFDGVDINWEYPQAAEVDGFIAALQEIRTLLNQQTITDGRQALPYQLTIAGAGGAFFLSRYYSKLAQIVAPLDYINLMTYDLAGPWEKVTNHQAALFGDAAGPTFYNALREANLGWSWEELTRAFPSPFSLTVDAAVQQHLMMEGVPSAKIVMGVPFYGRAFKGVSGGNGGQYSSHSTPGEDPYPSTDYWLVGCEECVRDKDPRIASYRQLEQMLQGNYGYQRLWNDKTKTPYLYHAQNGLFVTYDDAESFKYKAKYIKQQQLGGVMFWHLGQDNRNGDLLAALDRYFNAADYDDSQLDMGTGLRYTGVGPGNLPIMTAPAYVPGTTYAQGALVSYQGYVWQTKWGYITSAPGSDSAWLKVGRVA” here?
Answer: The value was “soluble”.

Question: With “MSTSNAQSGRAAAIARRNAQVKGKGYTASAAPAAPRKPAAPVAEPVVAAAPAPSQPSRSRRKVSVAPTATPAASAAGREAAKLKRQQQKNGKSSAGAANAMPHPKAKAKQKPEEPIVEPRQAKAEKPTKRSERRTGVKPQVASQQPSGRLQSKAYRKAQAKGKAGQEAFKSNGSSQSGAKAKLANPDASTREIAQQVRAERCAQGKTCSTGGSRPMRKRRNAKEAPQKVGESQTLHGQSVSGTQVGQGEKKMTGSESGACQLVSGTEYLGAEEFSKNCDVQPTPQPAKVTQTQTTRGQVVSGSTKVGRSDKMTGNETGTCSAITGTEYLPADQSKMYCGETPAKSKATGFSVMSQATQKSEQKVTGGDSRKSQSTTFKPKNPASAPHKVMPSQTAKGNTTTGSQVGRLESVTGGERGSCHAVTGTGYQGAEEAKACDMPMTETADKVTASGTAGGQKVTGDRSGAYYGMTGAEAGDCKTITGTSYTGTEQFQFCSVDEQNEMKVRQRKGANPSISGVQPGPQGLTGAQKGACELVTGSHYQGGDQTAMVCDSTNAAAPGESDFPAMIGQAQPAFSTNEVEPMVDEGSKITGDGWDRGSKVTGTDGPWAAQRNASIRGVAGQSPMGASQYRPVNNEVPMSPITGSSGNTDTGAKVTLSGGARA” as the sequence, how does the “soluble on expression in E. coli” value read?
Answer: Its value is “not soluble”.

Question: For “MSTSRDRVRQALSHQGSDRIPVDFGATAVTGIHCRVVEALRKHYGLSYKPVKIVDTFQMLGEVDRDLADAMGVDCIGVGGTRDIFDHDTECMHEQVTPWGQKVLVPIQLDLTQDKEGDVYVYAGGDKNYPPSAVMPNGCFFINAIERQQPIDEDKLNPMDNLEEFNSITDEELDVYKKKVNEASATGRAVVASFGGTALGDVAFVPGMGLKEPKGIRSVVEWYMSTVMRQEYLHEIFRRQTDIAIANYEKLWAVLGDKVDVVLTCGTDFGSQESQFCSVEVFNELWLPHYRRMNDWIHEHTTWKVFKHSCGAIVPILPGLIKAGFDIINPVQINAKDMDSGMLKREFGSHLTFWGGGVDTQKMLPFGTPDEIRRHVLGQCEILGKDGGFVFNSVHNIQANVPVENVIAMLDALKTVLEHHHHHH”, which “soluble on expression in E. coli” value is on record?
Answer: The value was “not soluble”.

Question: For “MSTSTAPSSASSDADSLNHDENPIKAVIFDYGEVMWMQSRNVHVYRKIEEDNKLFDNSLIPTLVSKELSSILPKGFQEDLLTGIYTAKDFDRLFLSAYNRKFGSQVESLKFFSATEYDNDAVYEEAVLTACQKLRERGVKTILMLDTYHVDEKRNGRRIPNMEKYFDHVIESCKEGVKKPDPRFYQIALDCVDVQPEEVIYIDDSKINCESAAVLGIRYIQVFNSMDMLEDLQEILGFDLD”, which “soluble on expression in E. coli” value is on record?
Answer: Its value is “not soluble”.

Question: For “MSTVQVPKLNTKDLLTLEELTQEEIISLIEFAIYLKKNKQEPLLQGKILGLIFDKHSTRTRVSFEAGMVQLGGHGMFLNGKEMQMGRGETVSDTAKVLSHYIDGIMIRTFSHADVEELAKESSIPVINGLTDDHHPCQALADLMTIYEETNTFKGIKLAYVGDGNNVCHSLLLASAKVGMHMTVATPVGYKPNEEIVKKALAIAKETGAEIEILHNPELAVNEADFIYTDVWMSMGQEGEEEKYTLFQPYQINKELVKHAKQTYHFLHCLPAHREEEVTGEIIDGPQSIVFEQAGNRLHAQKALLVSLFKNVEELS”, which “soluble on expression in E. coli” value is on record?
Answer: Its value is “not soluble”.

Question: With “MSVDPNLLTPYKNTGAANASLRQISEDAFYVVNEVVMKRLGHVPILKGDFHLLPAKVQRFIAEKAELMRPRGIFICDGSQHEADELIDKLIERGMLSKLEAYENNYICRTDPKDVARVESKTWMVTKNKYDTVTHTKEGVEPIMGHWLAPEDLATELDSRFPGCMAGRIMYVIPFSMGPVGGPLSKIGIQLTDSNYVVLSMRIMTRVNNDVWDALGNQDFVRCIHSVGLPRPVKQRVINHWPCNPERVLIAHRPPEREIWSFGSGYGGNSLLGKKCFALRIASNIAKDEGWMAEHMLIMGVTRPCGREHFIAAAFPSACGKTNLAMLEPTLPGWKVRCVGDDIAWMKFGEDGRLYAINPEAGFFGVAPGTSNKTNPMAVATFQKNSIFTNVAETANGEYFWEGLEDEIADKNVDITTWLGEKWHIGEPGVAAHPNSRFAAPANQCPIIHPDWESPQGVPIEAIIFGGRRPQGVPLIYETNSWEHGVFTGSCLKSEATAAAEFTGKTVMHDPMAMRPFMGYNFGKYLQHWLDLKTDSRKMPKIYHVNWFRKDSNNKFLWPGFGDNIRVIDWIIRRLDGEQEIGVETPIGTVPAKGSINLEGLGEVNWDELMSVPADYWKQDAQEIRKFLDEQVGEDLPEPVRAEMDAQEKRVQTL” as the sequence, how does the “soluble on expression in E. coli” value read?
Answer: The value was “not soluble”.

Question: Which “soluble on expression in E. coli” value does the source give for “MSVGYDRLKTSSLAELRAAIRSGAYRSHTAGLGQGYLQANLAILPEAYALDFMRYCQRNPKPCPLIGVSDTGNPMMFTLGRDIDIRTDVPAYNVYRDGRLDSVSADITEDWRDDLVVFALGCSFTFEHAVMRAGVALWHVDNDRTVPMFRSNIETVPAGPFSGKMVVSMRAVPEDRVAEVAEISRAYPLAHGAPVYWGDPAGLGIADIMSPDWGDPAPLGPGEVPMFWACGVTPQVAIEAARLPLCITHKPGHMLITDVAEDAEVPVVETAQDKRLEHHHHHH” here?
Answer: The value was “soluble”.

Question: For “MSVIKMTDLDLAGKRVFIRADLNVPVKDGKVTSDARIRASLPTIELALKQGAKVMVTSHLGRPTEGEYNEEFSLLPVVNYLKDKLSNPVRLVKDYLDGVDVAEGELVVLENVRFNKGEKKDDETLSKKYAALCDVFVMDAFGTAHRAQASTHGIGKFADVACAGPLLAAELDALGKALKEPARPMVAIVGGSKVSTKLTVLDSLSKIADQLIVGGGIANTFIAAQGHDVGKSLYEADLVDEAKRLLTTCNIPVPSDVRVATEFSETAPATLKSVNDVKADEQILDIGDASAQELAEILKNAKTILWNGPVGVFEFPNFRKGTEIVANAIADSEAFSIAGGGDTLAAIDLFGIADKISYISTGGGAFLEFVEGKVLPAVAMLEERAKK”, which “soluble on expression in E. coli” value is on record?
Answer: Its value is “soluble”.

Question: For “MSVINKIVARRTQLSQSGRLVGDWIVENAEKAAQLTSQELAAQVKVSQSSIVKFTQRIGFKGYSEFKLALNEEIGRKHAMQSTPLHSDILADDPIAVISQKLVKAKTDAMFQTTNALSYEACHQAVKWLSEARRVQVVGIGGSALTAKDLSFKLLKLGITALSEQDSHVQIAVARTLSSEDVQIAISYSGERKEILVAAEAAKEQGAKVIALSAPGRSRLRGIADITFDTIANETEHRSSSIASRTAQNVITDLLFIILVQQRDESARQLISDISTDIKQILT”, which “soluble on expression in E. coli” value is on record?
Answer: Its value is “not soluble”.

Question: Which “soluble on expression in E. coli” value does the source give for “MSVLEGINSKALKTGNAGKNLKFKKIGDLPPPSPSPNTFRIYSMRFCPAAQRALIYASVKKIPSEVININLQQKPDWYFTKNYKGQVPTLEHAEGKKLVIESAVIPEYLDDIFPETKILPSDPYEKVQQKLLLERLSDQLTPAFGRVFRAIKNPEELKEKFESILKAFEEAESLLEGAFYSGTSSPGFVDYLIYPSFQRVYWLTFLLEIFPLPSDNFPGPGYPKLSQWFKAITAIPEVAAASQSTENGVGSCKEYMKGLPYFDYGL” here?
Answer: Its value is “not soluble”.
